This is an account of results in the DeepSol protein solubility set.

The nature of the data set: soluble on expression in E. coli; label from the status in PepcDB or PDB records.
As to “MLLNLQKILKKWVICTLPKPNVTFLAIKFFNLKNEFLFFSKFCKKQPKFEILNVSYCSQNFQKYRIQYLNYFKISTFFSIKKSHIQV”, the “soluble on expression in E. coli” value was “not soluble”.
Then “MLLPKFLLLTAFLEFASAICADSNDQEIKGFCFKFVTQQLTFTDARTWCHLKNPVGPSYLAYVPSQDTSTYLAFYARSAFGADAEVFWIGLSRNASSGSLSWDNGLPVAYTNFGTNVGKNYFTESISNTKWDTLGDGDLNFFVCSYAPIVNSTTMTSITGTTKRMTTTTIEKLNCKPGDHQIILFAYSNDLAPSVVTDALYYSSLSSQSVTYAVSRFDLRQPEDIQYFSDYSLFSSYVSSHLPDYTLGFEEATTGSNVFEVINKFYDNTQATCGSNLIILSKRYPNTADVSNIVLKVRKSQGMVNFLASHAPSGGTVSQGLYDLCSLTNGIYSIGRDSSFSNMIESMPIRYRYAIYADNPKVSGQGSQTLASMSVPADGTYYLSMMLQNHTPVNTTQSVLLHWYSPYSRYSSTASVHGLSFETNNNGANSEILDAAIYNVTLDFVYFTSETMQIRFYGTSTDHWLPYAD”, with “not soluble”.
The same measure for “MLMKVAEFERLFRQAAGLDVDKNDLKRVSDFLRNKLYDLLAVAERNAKYNGRDLIFEPDLPIAKGLQETLQEFRRMDTALELKPVLDALAALPPLDLEVAEDVRNLLPELAGALVVAYARVLKELDPALKNPQTEHHERAERVFNLLL”: “soluble”; for “MLNDVFILTQIKEGNIKAFETLFRQYYTPLRLYAASITGVPDVAEEIVEELFYVFWKDREKLEIFHSVKNYLYRSVRNRSIQYCEHQDVKRRYQDAILSVPVNIASPDPQEQIEYKELQQIINRTLEKLPERRLHIFRLHHTEGKKYSEIASLLSLSVKTVEKEMTRALRTLRKEIENYIQIS”: “not soluble”.
The same measure for “MLNNPVGWFEIYVNDMERAKTFYETVLKVSLEEMPNPTSMPIKMLTFPSNMEKYGASGALVKMEGICAGGGGTLIYFSSDDCAVEQERIVAAGGQIHTPKMSIGEYGFITLAVDTEGNLFGLHSMQ”: “not soluble”; for “MLNQLDNLTERVRGSNKLVDRWLHVRKHLLVAYYNLVGIKPGKESYMRLNEKALDDFCQSLVDYLSAGHFSIYERILHKLEGNGQLARAAKIWPQLEANTQQIMDYYDSSLETAIDHDNYLEFQQVLSDIGEALEARFVLEDKLILLVLDAARVKHPA”: “soluble”; for “MLNQNERHQILEEAVEWLMQMKQKPLNEIELLEFEQWKNRSQLHQSIWQQAYQLEEKFQSLPSHIAIPIIQKQKSHPDIWLMVLSCLPLLGLLYVMNQQQQWTADYRNGFHAPQTVKLPDGGKIILNSNTAIDVKYTAKKRDIILRKGEIWIETQHDVKNRPFTVYTQQGQAQALGTKYLVKIDQKSSQIAVLKGAVKVQPKTNNQYVIITKGQKISINQYNLHSVEYFDHSEIGWTKGLIMVNEIPLSEFVQKLRPYQSALIYLDPEVSNIKISGTFPIANMAQLYEMLENTYAIDVDRYAMNHIIRIRQKK”: “not soluble”.
With “MLNRFKSWRERGWVPIDAAAYELAWQRLGGSVATHPLVVARLSEFSGIPVRYLAWEQGGEVKAAIATWGRSLALSKDELKRHGKKGLFDLGNAELILPVAEGVQVPVRHRARYVSALNEGRISTLKSQTESLAMARTPEELSKKFRYNQRRELRLLEEAGGTVRPVSEFSSAELASMYCDLFQRRWGFEATGARDKAQVIELLRDLLIGSVVFLNDAPIAIQLVYRVEAPQWVSIEYVNGGVDPETRDFSPGSVLSFVNTQSAWEDARALGKALRFSFGRADREYKDRWCNPVPVFQL”, the “soluble on expression in E. coli” value was “not soluble”.
Regarding “MLNSLEAYNENKFIVFGINDNKEIIGLEKNMFDDAHYQNIIDEYINPRPKIETGQIEYNDEKIGYIAINSNNLETPYELKKELRIKKSKSSLSKGLSFIRKGSTNTPIIQEEREKLILKKTEKNPNNKNLFTALNQKNHAIEEIYYKDNKKSGRKKLDPSNNNGRFTIGELSYEFEMILDVASNEIARIMKTDTIKVARIKNYKDNDIYYELQENLKSPNEVVKKLDTSSRSRDFTLKDLGILINKHGRIAEIFFKEIKSESHGSEENIVEIEWNIPDTKLEHHHHHH”, the “soluble on expression in E. coli” value was “not soluble”.
The same measure for “MLNSNNHQTEWKWPRLIQIMEIGNSAMKNTMSKTLYMSYNFIARTSGKTYHAPVLVVDCSVNEGWLWMRICHNCLGCLCTGYWAAQRTFATTTGLRLVWL”: “soluble”.
Then “MLNTRLELNKRIDNNVQLKYTEQKIFGNSKEIIGCEVLLDFEYAKKNQVAWKYLTMMHNGASLLSLIVYVNESILRYVKSNINKVFINVERISLCNSRHVGLITRLNEKMSEHNISLIVEITERGSDIPFVEIKNGLKSLQCSHVKLAMDDYDYKKTDFRSDEIFDYDYIKVDFPKTKAELDSFNNFVFLTSMFTCLIVERIENENDFFSVKNNRIWGYQGFAFCQKESFEGWSDNTSDNNVF”, with “not soluble”; and “MLPANEIKGVLAFLREAERLKSVIRSGYTSTGRPESTAEHTWRLCLMAMLLADGLGDIDVARLLKICIVHDLGEALHGDVPAVAQVEGDDRAARERADIETLTQSLDDKRRAELLGLWHDYETGASPEGRLAKGLDKLETILQHTQGLNPADFDYAFNLDYGARHTAVHPLVSAIRAELDNDTRARMALQQASGAPH”, with “not soluble”; and “MLPFAPQDEPWDREMEVFSGGGASSGEVNGLKMVDEPMEEGEADSCHDEGVVKEIPITHHVKEGYEKADPAQFELLKVLGQGSFGKVFLVRKKTGPDAGQLYAMKVLKKASLKVRDRVRTKMERDILVEVNHPFIVKLHYAFQTEGKLYLILDFLRGGDVFTRLSKEVLFTEEDVKFYLAELALALDHLHQLGIVYRDLKPENILLDEIGHIKLTDFGLSKESVDQEKKAYSFCGTVEYMAPEVVNRRGHSQSADWWSYGVLMFEMLTGTLPFQGKDRNETMNMILKAKLGMPQFLSAEAQSLLRMLFKRNPANRLGSEGVEEIKRHLFFANIDWDKLYKREVQPPFKPASGKPDDTFCFDPEFTAKTPKDSPGLPASANAHQLFKGFSFVATSIAEEYKITPITSANVLPIVQINGNAAQFGEVYELKEDIGVGSYSVCKRCIHATTNMEFAVKIIDKSKRDPSEEIEILMRYGQHPNIITLKDVFDDGRYVYLVTDLMKGGELLDRILKQKCFSEREASDILYVISKTVDYLHCQGVVHRDLKPSNILYMDESASADSIRICDFGFAKQLRGENGLLLTPCYTANFVAPEVLMQQGYDAACDIWSLGVLFYTMLAGYTPFANGPNDTPEEILLRIGNGKFSLSGGNWDNISDGAKDLLSHMLHMDPHQRYTAEQILKHSWITHRDQLPNDQPKRNDVSHVVKGAMVATYSALTHKTFQPVLEPVAASSLAQRRSMKKRTSTGL”, with “soluble”.
The same measure for “MLPFFKELQTCTEMLEKNPQDATALFQKAVLLYKARRFEAALQLIEQVLEIVPDDFRVWYNRGVVLSEMGRLEDALAAYDRVIELEPVFEMAWDNKGVVLARLGRFEEALETYEKVLLRNPKYAEAWAGKGSVLSALDRKEEALEAYLSALKIRPDYLEALKSVGSLFSRLGRYEEALAAYDTALQAAPEAPELWAGRGLVLSELDRQEEALQSCSRALELKPGFAPALEVKVKILSEIGRQKARASQLEHHHHHH”: “soluble”; for “MLPFLFFSTLFSSIFTEAQKQYWVCNSSDASISYTYCDKMQYPISINVNPCIELKGSKGLLHIFYIPRRDLKQLYFNLYITVNTMNLPKRKEVICRGSDDDYSFCRALKGETVNTTISFSFKGIKFSKGKYKCVVEAISGSPEEMLFCLEFVILHQPNSNLEHHHHHH”: “not soluble”.
As to “MLPRFADIFQQGNRWLNWLEKQPEGAVRPVVIESVTKIMACGTTLMGYTNRCCSSPDCCHTKKVCFRCKSRSCPHCVVKAGAQWIQYLLSLVPYCPWQHIVFTLPCQYWSLVFHNRWLLAKMSRIAADVILEICHQADVEPGIFTVIHTWGRDQQWHPHIHLSTTAGGVTSGHTWKNLHFYARKVMSMWRYRITRLLSRKYPYLVMPDALAAEGSSKREWNRFLDTHYRRGWNVNVSRVMDNATHVAVYFGSYLKKPPVPMSRLEHYAGQDEIGLRYNSHRTKREEYLLMSGDESMERFSWHVADKGFRMVRYYVFLSPAKRRLLEEVVYIITETVRKTAMQITWRGMYQRLLKVDPLKCVLCGSQMRFTGLKRGYRLAEQVLMHEPLARMRWCG”, the “soluble on expression in E. coli” value was “not soluble”.
